The text below walks through data of patent US20230303711A1.

Assay [1] has as its target His-tagged human CD47-ECD protein (CD47-His) (human) (UniProt Q08722). Nature of the assay: competitive ELISA on coated CD47-His (2 µg/mL); blocked ligand SIRPα-Fc-Bio (0.1 µg/mL), HRP-streptavidin, OD450. Background: ELISA stands for enzyme-linked immunosorbent assay.
Assay [2] deals with Fc-tagged human CD47-ECD protein (CD47-Fc) (human). The assay can be described thus: ELISA on coated human CD47-Fc; row printed as Affinity (µg/mL).
Fc-tagged human CD47-ECD protein (CD47-Fc) (human), sequence (chain, as listed by the source limits assumed): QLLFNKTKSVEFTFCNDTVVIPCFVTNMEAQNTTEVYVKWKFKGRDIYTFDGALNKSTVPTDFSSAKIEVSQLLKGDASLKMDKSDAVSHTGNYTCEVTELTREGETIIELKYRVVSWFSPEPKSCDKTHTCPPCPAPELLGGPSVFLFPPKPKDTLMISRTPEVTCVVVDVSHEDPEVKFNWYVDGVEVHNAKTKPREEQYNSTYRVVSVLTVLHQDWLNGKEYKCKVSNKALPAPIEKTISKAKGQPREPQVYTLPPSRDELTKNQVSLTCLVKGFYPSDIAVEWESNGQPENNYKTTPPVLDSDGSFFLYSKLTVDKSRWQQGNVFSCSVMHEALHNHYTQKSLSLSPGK

His-tagged human CD47-ECD protein (CD47-His) (human), sequence (Q08722 other isoform, or with tags, fused parts or gaps): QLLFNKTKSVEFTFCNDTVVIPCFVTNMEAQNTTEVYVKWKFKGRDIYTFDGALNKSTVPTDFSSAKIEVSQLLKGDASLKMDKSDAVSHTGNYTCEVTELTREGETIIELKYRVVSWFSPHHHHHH

In assay [1], IgG (antibody) returned a parameter C of the printed 4-parameter fit (OD does not fall, A 1.192, D 1.394; not an IC50) of 5.76 µg/mL; a parameter C of the printed 4-parameter fit (OD does not fall, A 1.343, D 8.036; not an IC50) of 13.4 mg/mL; a parameter C of the printed 4-parameter fit (OD only falls from A 1.633 to D 1.446; not an IC50) of 1.95 µg/mL.

Substance Antibody Hu5F9-G4 had an EC50 in assay [2] of 0.092 µg/mL.

What is called EC50 is the concentration that produces a half-maximal response. High values mean a less potent agent, low ones a more potent agent.
